Data reported in US20150192588A1 (SAMSUNG ELECTRONICS, published 2015).

Target: T1, human c-Met/Fc fusion protein (R&D Systems) (human, UniProt P08581 25-932)
T1 construct: Bought reagent, coated on the ELISA plate at 2 ug/mL; also called human c-Met/Fc protein; not shown: Fc part of the bought fusion protein
Assay: ELISA, human c-Met/Fc coated at 2 ug/mL, hybridoma culture supernatant, anti-mouse IgG-HRP
Protocol: Human c-Met/Fc fusion protein was seeded in an amount of 50 μL (2 μg/mL)/well to microtiter plates and allowed to adhere to the surface of each well. The antibody that remained unbound was removed by washing.
The hybridoma cell culture obtained in Reference Example 1.1.2 was added in an amount of 50 μL to each well of the plates and incubated for 1 hour. The cells remaining unreacted were washed out with a sufficient amount of Tris-buffered saline and Tween 20 (TBST). Goat anti-mouse IgG-horseradish peroxidase (HRP) was added to the plates and incubated for 1 hour at room temperature. The plates were washed with a sufficient amount of TBST, followed by reacting the peroxidase with a substrate (OPD). Absorbance at 450 nm was measured on an ELISA reader.

T1 sequence (P08581 25-932 limits assumed): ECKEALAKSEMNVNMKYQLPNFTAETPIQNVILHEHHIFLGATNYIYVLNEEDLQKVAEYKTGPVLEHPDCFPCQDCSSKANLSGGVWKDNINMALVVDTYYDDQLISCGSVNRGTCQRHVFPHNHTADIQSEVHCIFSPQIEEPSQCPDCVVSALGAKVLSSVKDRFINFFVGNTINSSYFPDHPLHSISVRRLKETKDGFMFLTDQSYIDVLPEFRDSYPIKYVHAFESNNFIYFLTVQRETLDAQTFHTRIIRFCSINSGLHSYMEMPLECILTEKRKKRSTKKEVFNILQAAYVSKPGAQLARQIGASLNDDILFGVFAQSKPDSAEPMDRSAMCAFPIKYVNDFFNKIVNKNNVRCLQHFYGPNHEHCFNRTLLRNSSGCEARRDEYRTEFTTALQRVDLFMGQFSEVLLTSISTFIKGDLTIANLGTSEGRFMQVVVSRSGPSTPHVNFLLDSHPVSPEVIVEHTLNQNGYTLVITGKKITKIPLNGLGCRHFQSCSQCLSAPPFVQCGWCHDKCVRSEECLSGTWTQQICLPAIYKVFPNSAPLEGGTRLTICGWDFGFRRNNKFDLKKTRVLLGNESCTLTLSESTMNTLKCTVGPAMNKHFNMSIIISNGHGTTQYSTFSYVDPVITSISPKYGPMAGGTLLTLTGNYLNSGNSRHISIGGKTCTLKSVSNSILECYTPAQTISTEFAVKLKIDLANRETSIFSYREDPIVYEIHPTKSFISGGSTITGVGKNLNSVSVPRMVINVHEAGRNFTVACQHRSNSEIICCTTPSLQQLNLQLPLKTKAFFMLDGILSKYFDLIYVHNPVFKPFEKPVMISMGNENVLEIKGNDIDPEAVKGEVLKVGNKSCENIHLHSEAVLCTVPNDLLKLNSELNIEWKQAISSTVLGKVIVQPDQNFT

- binding result: binds
B1: AbF46, mouse monoclonal antibody to c-Met (hybridoma KCLRF-BP-00220) (antibody, V domains shown)
VH: EVKLVESGGGLVQPGGSLRLSCATSGFTFTDYYMSWVRQPPGKALEWLGFIRNKANGYTTEYSASVKGRFTISRDNSQSILYLQMDTLRAEDSATYYCARDNWFAYWGQGTLVTVSA
VL: DILMTQSPSSLTVSAGEKVTMSCKSSQSLLASGNQNNYLAWHQQKPGRSPKMLIIWASTRVSGVPDRFIGSGSGTDFTLTINSVQAEDLAVYYCQQSYSAPLTFGAGTKLELK
notes: In the screening ELISA it stood as hybridoma culture supernatant; The single clone chosen by this screen produces AbF46; also called mouse antibody AbF46
